Entries after “also recorded” stand apart in the source; their conditions may differ.
Columns and labels:
HLA-A*0201 molecule = HLA-A*0201 molecule (Homo sapiens, UniProt P04439, D140Y/D185E/D98H/E176V/E277Q/G131W/G231S/I119V/I121R/I166T/I218V/L300P/L318F/N151K/N90K/P208A/P217A/Q86G/Q94H/R138H/R169H/T345S); conditions: cited from earlier work
[1] = system: HLA-A*0201-positive PBMCs and HLA-A*0201/Kb transgenic mice; conditions: in vitro from PBMCs and in HLA-A*0201/Kb transgenic mice; cited from earlier work
[2] = system: HLA-A*02 positive cell types from healthy tissues; experiment: Safety: IFN-γ release upon co-culture with primary and iPSC-derived cell types from healthy tissues; assay type: cell-based, human; conditions: E:T ratio 1:1, 20 h, ELISA, normalized
Text: FIG. 13 T cells transfected with RNA coding for TCR R7P1 D5, R10P2G12, R20P1H7, mock or the control TCR 1G4 (SEQ ID NO:X) were co-cultured with different primary human healthy tissue cells (see table 13 for abbreviations), the target negative tumor cell line MCF-7 and the MAGEA4- and NY-ESO1-positive cell lines A-375 and NCI-H1755. TCRs R7P1D5, R10P2G12, R20P1H7 and 1G4 expression in T cells was achieved by electroporation using an RNA vector. […] E:T ratio 1:1, 20,000 cells each, mean of IFN-γ release after 20 h from replicates is shown as measured by ELISA. Error bars indicate standard deviations. Results were normalized by subtraction of IFN-γ release from TCR-transfected T cells only and IFN-γ release due to co-culture of Target cells and T cells not expressing TCR of interest.
(§1) TCRs of interest were expressed in human T cells via RNA electroporation and the T cells were assessed for IFN-γ release after co-culture with different target cells, such as T2 cells loaded with different peptides as well as tumor cell lines and primary cells from healthy tissues. T-cell activation data are shown in absolute IFN-γ levels or a normalized way as indicated below.
(§2) Efficacy of CD8+ T cells expressing TCRs R7P1 D5, R10P2G12 and R20P1H7 was determined by T cell activation studies (IFN-γ release) using different tumor cell lines as target cells. The characterization of the safety profile of TCRs of interest was approached by testing the potential activation of TCR-expressing T cells upon co-culture with isolated primary cell types from healthy tissues and induced pluripotent stem cell (iPSC)-derived cell types from HLA-A*02-positive donors (Table 13). Cell types were selected in a manner to cover most of the critical organs like e.g. brain, heart and liver and different cell types as epithelium, endothelium or smooth muscle. Tumor cell lines were analyzed side-by-side as positive and negative controls.
(§3) Normalization Method for IFNγ Release: Meannorm(TCRoi;co)=[mean(TCRoi;co)−mean(TCRoi;effector only)]−[mean(mock;co)−mean(mock;effector only)]
The respective CVnorm was calculated: CVnorm(TCRoi;co)=[CV(TCRoi;co)^2+CV(TCRoi;effector only)^2+CV(mock;co)^2+CV(mock;effector only)^2]^[½] TCRoi=effector cells expressing TCR of interest Mock=effector cells without exogenous TCR expression Co=effector cells co-cultured with target cells Effector only=effector cells not co-cultured Mean(norm)=mean IFNγ release (normalized) CV(norm)=coefficient of variation (normalized) Results: […]

[3] = system: NYESO1 expressing HLA-A*02 positive tumor cell lines; experiment: IFN-γ release of 1G4-expressing CD8+ T cells with NYESO1 expressing tumor cell lines; assay type: cell-based, human; conditions: Example 6
Procedure: as §1, §2

MHC/NYESO1-001 complex = experiment: Activation of 1G4-transformed CD8+ T-cells by NYESO1-001-loaded target cells; assay type: cell-based, human
MHC/MAG-003 complex = target: T1, MHC/MAG-003 complex (Homo sapiens, UniProt P04439+P43358, D140Y/D185E/D98H/E176V/E277Q/G131W/G231S/I119V/I121R/I166T/I218V/L300P/L318F/N151K/N90K/P208A/P217A/Q86G/Q94H/R138H/R169H/T345S); experiment: IFN-γ release assay: TCR-RNA-electroporated CD8+ T-cells co-incubated with peptide-loaded target cells; assay type: cell-based
T1 construct: endogenous in cells
Procedure: In another aspect, to obtain T-cells expressing TCRs of the present description, TCR RNAs were synthesized by techniques described in the art, e.g., in vitro transcription systems. The in vitro-synthesized TCR RNAs were then introduced into primary CD8+ T-cells obtained from healthy donors by electroporation to re-express tumor specific TCR-alpha and/or TCR-beta chains.
To determine specificity and affinity of TCRs, the transformed CD8+ T-cells were co-incubated with MAG-003-loaded target cells or with target cells loaded with homologous but unrelated peptide RABGAP1L-001 (SEQ ID NO:91), AXIN1-001 (SEQ ID NO:92), ANO5-001 (SEQ ID NO:93), TPX2-001 (SEQ ID NO:94), SYNE3-001 (SEQ ID NO:95), MIA3-001 (SEQ ID NO:96), HERC4-001 (SEQ ID NO:97), PSME2-001 (SEQ ID NO:98), HEATR5A-001 (SEQ ID NO:99) or CNOT1-003 (SEQ ID NO:100) or control peptide NYESO1-001 (SEQ ID NO:101), followed by IFN-γ release assay. Unloaded target cells and CD8+ T-cells alone served as controls. IFN-γ secretion from CD8+ T-cells is indicative of T-cell activation with cytotoxic activity.
As shown in FIGS. 5-7 all primary CD8+ T-cells transformed with TCRs of the present disclosure, after co-incubation with MAG-003-loaded target cells, released much higher levels of IFN-γ than that stimulated by unrelated peptide-loaded target cells, and the controls.

MHC/MAG-003 tetramer = MHC/MAG-003 tetramer (Homo sapiens, UniProt P04439+P43358, D140Y/D185E/D98H/E176V/E277Q/G131W/G231S/I119V/I121R/I166T/I218V/N151K/N90K/P208A/P217A/Q86G/Q94H/R138H/R169H); experiment: Tetramer staining of TCR-RNA-electroporated CD8+ T-cells, MHC/MAG-003 tetramer; assay type: binding
Text: (§4) FIG. 8 show MHC/MAG-003 tetramer or MHC/NYESO1-001 tetramer staining of CD8+ T-cells electroporated with alpha and beta chain RNA of TCRs R7P1 D5, R20P1H7 and R10P2G12 (Table 2), respectively. CD8+ T-cells electroporated with RNA of 1G4 TCR that specifically binds to MHC/NYESO1-001 complex and mock electroporated CD8+ T-cells served as controls.
(§5) T-cell activation was further confirmed using a tetramer staining technique to detect MHC/MAG-003-binding activated cytotoxic T-cells. As shown in FIG. 8 and Table 11, a higher percentage of TCR-expressing CD8+ T-cells were stained positive fluorescent-labeled MHC/MAG-003 tetramer than that with MHC/NYESO1-001 control tetramer or mock control. […] The alpha and beta chains of TCR 1G4 are shown in SEQ ID NO:89 and 90, respectively: […]

MHC/NYESO1-001 tetramer = experiment: Tetramer staining of TCR-RNA-electroporated CD8+ T-cells, MHC/NYESO1-001 control tetramer; assay type: binding, human
Text: as §4, §5

[4] = system: A-375 (human melanoma cell line, positive for HLA-A2 and MAG-003 expression); experiment: IFNγ release, TCR-expressing CD8+ T-cells co-incubated with A-375; assay type: cell-based
Procedure: (§6) To determine efficacy of T-cells expressing TCRs described herein, primary CD8+ T-cells electroporated with RNA of the TCRs R7P1 D5, R20P1H7 and R10P2G12 were co-incubated with different human cancer cell lines, e.g., A-375 (human melanoma cell line, which is positive for HLA-A2 and MAG-003 expression), T98G (human glioblastoma cell line, which is HLA-A2-positive and MAG-003-negative), and SK-BR-3 (human breast cancer cell line, which is HLA-A2-negative and MAG-003-negative), followed by IFNγ release assay.
as §1, §2, §3

[5] = system: T98G (human glioblastoma cell line, HLA-A2-positive and MAG-003-negative); experiment: IFNγ release, TCR-expressing CD8+ T-cells co-incubated with T98G; assay type: cell-based; conditions: Example 4, T98G, compared with effector cell only control
Procedure: as §6

[6] = system: SK-BR-3 (human breast cancer cell line, HLA-A2-negative and MAG-003-negative); experiment: IFNγ release, TCR-expressing CD8+ T-cells co-incubated with SK-BR-3; assay type: cell-based; conditions: Example 4, SK-BR-3, compared with effector cell only control
Procedure: as §6

[7] = system: human non-small cell cancer cell line, H1755 (NCI-H1755); experiment: IFNγ release, TCR-expressing CD8+ T-cells co-incubated with H1755; assay type: cell-based; conditions: Example 6, NCI-H1755 expressing HLA-A*02 and MAGEA4
Procedure: as §6, §1, §2, §3

For “YLLEHVVRL (listed as Homo sapiens) [p286-1Y2L9L]”, which “binding affinity and stability towards HLA-A*0201 molecule” value (HLA-A*0201 molecule) is on record?
The value was “potent binding affinity and stability”.

And the “induction of peptide-specific CTLs” value [1]?
The value was “showed the capability to induce specific CTLs”.

With “KVLEHVVRV (listed as Homo sapiens) [MAG-003]” as the molecule, how does the “binding affinity and stability towards HLA-A*0201 molecule” value (HLA-A*0201 molecule) read?
Its value is “potent binding affinity and stability”.

What about the “induction of peptide-specific CTLs” value [1] of the same molecule?
Its value is “elicits peptide-specific CTLs”.

B1: 1G4: control TCR known to bind specifically to MHC/NYESO1-001 complex; alpha and beta chains SEQ ID NO:89 and 90 (protein, listed as Homo sapiens)
alpha: METLLGLLILWLQLQWVSSKQEVTQIPAALSVPEGENLVLNCSFTDSAIYNLQWFRQDPGKGLTSLLLIQSSQREQTSGRLNASLDKSSGRSTLYIAASQPGDSATYLCAVRPTSGGSYIPTFGRGTSLIVHPYIQNPDPAVYQLRDSKSSDKSVCLFTDFDSQTNVSQSKDSDVYITDKTVLDMRSMDFKSNSAVAWSNKSDFACANAFNNSIIPEDTFFPSPESSCDVKLVEKSFETDTNLNFQNLSVIGFRILLLKVAGFNLLMTLRLWSS
beta: MSIGLLCCAALSLLWAGPVNAGVTQTPKFQVLKTGQSMTLQCAQDMNHEYMSWYRQDPGMGLRLIHYSVGAGITDQGEVPNGYNVSRSTTEDFPLRLLSAAPSQTSVYFCASSYVGNTGELFFGEGSRLTVLEDLKNVFPPEVAVFEPSEAEISHTQKATLVCLATGFYPDHVELSWWVNGKEVHSGVSTDPQPLKEQPALNDSRYCLSSRLRVSATFWQNPRNHFRCQVQFYGLSENDEWTQDRAKPVTQIVSAEAWGRADCGFTSESYQQGVLSATILYEILLGKATLYAVLVSALVLMAMVKRKDSRG
For B1, which “T-cell activation (IFN-γ release) by healthy tissue cells” value [2] is on record?
The value was “not towards the indicated panel of healthy tissue cells”.

What about the “T-cell reactivity (IFN-γ release)” value [3] of the same molecule?
Its value is “reactive”.

What about the T-cell activation (MHC/NYESO1-001 complex) of the same molecule?
Its T-cell activation is “readily activated”.

B2: R20P1H7: TCR, alpha chain SEQ ID NO:39 and beta chain SEQ ID NO:47, MAG-003-specific (protein, listed as Homo sapiens)
alpha: MEKMLECAFIVLWLQLGWLSGEDQVTQSPEALRLQEGESSSLNCSYTVSGLRGLFWYRQDPGKGPEFLFTLYSAGEEKEKERLKATLTKKESFLHITAPKPEDSATYLCAVQGENSGYSTLTFGKGTMLLVSPDIQNPDPAVYQLRDSKSSDKSVCLFTDFDSQTNVSQSKDSDVYITDKTVLDMRSMDFKSNSAVAWSNKSDFACANAFNNSIIPEDTFFPSPESSCDVKLVEKSFETDTNLNFQNLSVIGFRILLLKVAGFNLLMTLRLWSS
beta: MGPQLLGYVVLCLLGAGPLEAQVTQNPRYLITVTGKKLTVTCSQNMNHEYMSWYRQDPGLGLRQIYYSMNVEVTDKGDVPEGYKVSRKEKRNFPLILESPSPNQTSLYFCASSLGPGLAAYNEQFFGPGTRLTVLEDLKNVFPPEVAVFEPSEAEISHTQKATLVCLATGFYPDHVELSWWVNGKEVHSGVSTDPQPLKEQPALNDSRYCLSSRLRVSATFWQNPRNHFRCQVQFYGLSENDEWTQDRAKPVTQIVSAEAWGRADCGFTSESYQQGVLSATILYEILLGKATLYAVLVSALVLMAMVKRKDSRG
For B2, which “IFNγ” value (MHC/MAG-003 complex; CD8+ T-cells electroporated with TCR RNA, co-incubation with MAG-003-loaded target cells) is on record?
Its value is 200 to 900 pg/mL.

What about the EC50 (MHC/MAG-003 complex; target peptide (MAG-003) titration, IFN-γ release) of the same molecule?
The EC50 was ~10 nM.

What about the “% MAG-003 TET-positive primary CD8+ T-cells” value (MHC/MAG-003 tetramer) of the same molecule?
Its value is 5.73%.

What about the “% NYESO1-001 TET-positive primary CD8+ T-cells” value (MHC/NYESO1-001 tetramer) of the same molecule?
The value was 0.87%.

And the IFNγ release ([4]; Example 4, A-375, HLA-A2-positive and MAG-003-positive)?
Its IFNγ release is “IFNγ release was observed”.

And the “T-cell activation (IFN-γ release)” value ([4]; Example 6, A-375 expressing HLA-A*02 and MAGEA4)?
Its value is “activity”.

And the IFNγ release [5]?
The IFNγ release was “basal levels of IFNγ release”.

And the IFNγ release [6]?
The IFNγ release was “basal levels of IFNγ release”.

And the “T-cell activation (IFN-γ release)” value [7]?
The value was “activity”.

What about the “T-cell activation (IFN-γ release) by healthy tissue cells” value [2] of the same molecule?
The value was “no activation was observed; also recorded: did not lead to significant TCR-mediated recognition and T-cell activation”.

From patent US10889629B2, “Transfected T-cells and T-cell receptors for use in immunotherapy against cancers” (IMMATICS BIOTECHNOLOGIES GMBH, priority 2016, dated 2021)
